Here are results for one protein from patent publication US20110207677.

The target of this data set is T1, L-TAT-IB1(s).
T1 chain: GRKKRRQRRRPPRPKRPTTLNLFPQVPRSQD

B1: Recombinant and non activated JNK3 (protein)
chain: MSLHFLYYCSEPTLDVKIAFCQGFDKQVDVSYIAKHYNMSKSKVDNQFYSVEVGDSTFTVLKRYQNLKPIGSGAQGIVCAAYDAVLDRNVAIKKLSRPFQNQTHAKRAYRELVLMKCVNHKNIISLLNVFTPQKTLEEFQDVYLVMELMDANLCQVIQMELDHERMSYLLYQMLCGIKHLHSAGIIHRDLKPSNIVVKSDCTLKILDFGLARTAGTSFMMTPYVVTRYYRAPEVILGMGYKENVDIWSVGCIMGEMVRHKILFPGRDYIDQWNKVIEQLGTPCPEFMKKLQPTVRNYVENRPKYAGLTFPKLFPDSLFPADSEHNKLKASQARDLLSKMLVIDPAKRISVDDALQHPYINVWYDPAEVEAPPPQIYDKQLDEREHTIEEWKELIYKEVMNSEEKTKNGVVKGQPSPSGAAVNSSESLPPSSSVNDISSMSTDQTLASDTDSSLEASAGPLGCCR
Take B1: the “JNK3 phosphorylation of Elk1 (solid phase kinase assay)” value is “a marked exception was the absence of TAT-IB(s) inhibition of JNK3 phosphorylation of Elk1”.
